Measured values as given in patent US20220249679A1 (MITSUBISHI TANABE PHARMA, published 2022).

T1: Human syndecan-1 (CD138) on the cell surface (human, UniProt P18827 23-310)
T1 construct: Endogenous on H929, KMS-11 and RT112/84 cells or transfected into Expi293 cells; also called human CD138; hCD138
T1 sequence: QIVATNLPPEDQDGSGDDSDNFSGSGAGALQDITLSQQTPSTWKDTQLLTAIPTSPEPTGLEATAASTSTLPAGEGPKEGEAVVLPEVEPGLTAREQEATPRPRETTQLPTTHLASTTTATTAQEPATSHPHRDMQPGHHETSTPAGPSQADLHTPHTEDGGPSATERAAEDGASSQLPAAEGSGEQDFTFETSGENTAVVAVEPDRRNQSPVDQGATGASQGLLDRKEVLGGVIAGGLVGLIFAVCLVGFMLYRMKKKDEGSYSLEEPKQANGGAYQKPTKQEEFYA

T2: hCD138 peptide AGEGPKEGEAVVLP (human)
T2 construct: Portion of the linear CD138 peptide used for immunization; also the peptide in the crystal structure; also called syndecan-1 peptide
T2 peptide: AGEGPKEGEAVVLP

T3: Human CD138-Fc protein (human, UniProt P18827 23-254)
T3 construct: also called hCD138-Fc
T3 sequence: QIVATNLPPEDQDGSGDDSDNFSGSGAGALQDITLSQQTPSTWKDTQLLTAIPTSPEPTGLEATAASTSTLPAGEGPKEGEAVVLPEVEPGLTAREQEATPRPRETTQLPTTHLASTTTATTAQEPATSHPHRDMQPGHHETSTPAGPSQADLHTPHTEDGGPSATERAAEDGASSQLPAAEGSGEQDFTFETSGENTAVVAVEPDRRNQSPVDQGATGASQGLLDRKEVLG

T4: Human CD138 His (human, UniProt P18827 23-254)
T4 construct: also called hCD138
T4 sequence: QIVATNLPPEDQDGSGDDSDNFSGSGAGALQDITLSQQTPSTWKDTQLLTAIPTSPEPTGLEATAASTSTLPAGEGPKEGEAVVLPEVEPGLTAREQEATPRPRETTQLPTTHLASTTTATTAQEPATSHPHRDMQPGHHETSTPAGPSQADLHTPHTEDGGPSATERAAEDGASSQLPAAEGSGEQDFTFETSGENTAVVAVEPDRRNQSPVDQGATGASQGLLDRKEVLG

T5: Mouse CD138 His (mouse, UniProt P18828 23-255)
T5 construct: also called mCD138
T5 sequence: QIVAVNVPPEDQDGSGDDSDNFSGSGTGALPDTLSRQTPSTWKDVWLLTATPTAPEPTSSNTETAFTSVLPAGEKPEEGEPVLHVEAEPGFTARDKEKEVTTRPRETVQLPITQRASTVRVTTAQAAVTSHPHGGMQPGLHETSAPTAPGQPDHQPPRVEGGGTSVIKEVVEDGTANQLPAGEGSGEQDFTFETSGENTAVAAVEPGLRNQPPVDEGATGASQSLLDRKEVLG

T6: hCD138 (ELISA of Table 29) (human, UniProt P18827 23-254, limits assumed)
T6 construct: also called human CD138
T6 sequence: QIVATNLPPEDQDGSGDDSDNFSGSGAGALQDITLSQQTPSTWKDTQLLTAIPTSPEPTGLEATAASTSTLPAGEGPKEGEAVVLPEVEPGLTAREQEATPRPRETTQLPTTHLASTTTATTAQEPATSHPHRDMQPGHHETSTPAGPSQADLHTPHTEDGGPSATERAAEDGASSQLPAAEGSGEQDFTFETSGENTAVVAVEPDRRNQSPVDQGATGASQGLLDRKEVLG

B1: F6 f1ks-rep (antibody, V domains shown)
VH: QVQLQQSGAEVVKPGASVKLSCKASGYTFTSYYLYWVKKAPGQGLDWIGEIYPRSGGTNINEKFLSRVTLTADTSTSTAYMDLSSLTSEDTAVYYCTRSLLYWGQGTTLTVSS
VL: DVVMTQTPLSLSVTPGQPASISCKSSQSLLASDGKTYLNWLLQRPGQSPKRLIYLVSKLDSGVPNRFSGSGSGTDFTLQISRVEAEDVGLYYCWQGAHFPFTFGSGTKLEIKR
notes: Humanized F12P16F6 expressed as whole antibody with human constant regions (kappa light chain)
B2: F6 f1kf-rep (antibody, V domains shown)
VH: QVQLQQSGAEVVKPGASVKLSCKASGYTFTSYYLYWVKKAPGQGLDWIGEIYPRSGGTNINEKFLSRVTLTADTSTSTAYMDLSSLTSEDTAVYYCTRSLLYWGQGTTLTVSS
VL: DVVMTQSPLSLSVTLGQPASISCKSSQSLLASDGKTYLNWLQQRPGQSPRRLIYLVSKLDSGVPNRFSGSGSGTDFTLQISRVEAEDVGLYYCWQGAHFPFTFGSGTKLEIKR
notes: as for B1
B3: F6 akf-rep (antibody, V domains shown)
VH: QVQLVQSGAEVVKPGASVKLSCKASGYTFTSYYLYWVKKAPGQGLDWIGEIYPRSGGTNYAEKFQGRVTLTADTSTSTAYLELSSLTSEDTAVYYCTRSLLYWGQGTTLTVSS
VL: DVVMTQSPLSLSVTLGQPASISCKSSQSLLASDGKTYLNWLQQRPGQSPRRLIYLVSKLDSGVPNRFSGSGSGTDFTLQISRVEAEDVGLYYCWQGAHFPFTFGSGTKLEIKR
notes: as for B1
B4: F6 aks-rep (antibody, V domains shown)
VH: QVQLVQSGAEVVKPGASVKLSCKASGYTFTSYYLYWVKKAPGQGLDWIGEIYPRSGGTNYAEKFQGRVTLTADTSTSTAYLELSSLTSEDTAVYYCTRSLLYWGQGTTLTVSS
VL: DVVMTQTPLSLSVTPGQPASISCKSSQSLLASDGKTYLNWLLQRPGQSPKRLIYLVSKLDSGVPNRFSGSGSGTDFTLQISRVEAEDVGLYYCWQGAHFPFTFGSGTKLEIKR
notes: as for B1
B5: F11AP11E5 (antibody, V domains shown)
VH: QVQLQQSGAELVKPGASVKLSCKASGYTFTNYYMYWVKQRPGQGLEWIGEINPGNGGTNFNEKFKNKATLTVDKSSSTAYMQLSSLTSEDSAVYYCTTRFAYWGQGTLVIVSA
VL: DVVMTQTPLSLSVTIGQPASISCKSGQSLLYSNGKTYLTWLQQRPGQAPKLLMYQVSKLDPGIPDRFSGSGSETDFTLKISRVEAEDLGVYYCLQNTYYPHTFGAGTKLELKR
notes: Murine IgG purified from hybridoma supernatant
B6: hF6-HC-G7 (bispecific antibody, human IgG1, kappa)
heavy: not shown
light: DVVMTQTPLSLSVTPGQPASISCKSSQSLLASDGKTYLNWLLQRPGQSPKRLIYLVSKLDSGVPNRFSGSGSGTDFTLQISRVEAEDVGLYYCWQGAHFPFTFGSGTKLEIKRTVAAPSVFIFPPSDEQLKSGTASVVCLLNNFYPREAKVQWKVDNALQSGNSQESVTEQDSKDSTYSLSSTLTLSKADYEKHKVYACEVTHQGLSSPVTKSFNRGEC
notes: IgG1/kappa

Key:
[1] = target: T1, Human syndecan-1 (CD138) on the cell …; experiment: FACS on RT-112 cells, four parameter fit
Protocol: (§1) Analysis of cell-surface binding to human CD138 was performed on 9 representative humanized anti-CD138 antibodies by FACS (FIG. 7). […] Two cell lines expressing moderate levels of CD138 were used to test binding; multiple myeloma cell line KMS-11 and bladder cancer line RT112/84. […] EC50s were calculated using four parameter fit curves (Table 20). The constructs were also tested against ARH-77 cells, which are CD138 negative lymphoblasts.

[2] = target: T1, Human syndecan-1 (CD138) on the cell …; experiment: summary table; repeats the EC50 (nM) of Table 20, unit not given
Protocol: as §1

[3] = target: T2, hCD138 peptide AGEGPKEGEAVVLP; experiment: ELISA, plate-coated hCD138 peptide
Protocol: (§2) A CD138 binding ELISA was performed with 9 representative humanized antibodies to determine binding to portion of the linear CD138 peptide used for immunization (FIG. 7). […] Coated plates were incubated with various dilutions of each of the 9 representative antibodies overnight and binding was detected with a goat anti-human IgG (H+L)-HRP. EC50s were determined using four parameter fit curves (Table 21). An ELISA was also performed to detect binding to plate-coated human CD138-Fc protein (Table 21).

[4] = target: T3, Human CD138-Fc protein; experiment: ELISA, plate-coated human CD138-Fc
Protocol: as §2

[5] = target: T3, Human CD138-Fc protein; experiment: summary table; repeats the EC50 (nM) of Table 21, unit not given
Protocol: as §2

[6] = target: T1, Human syndecan-1 (CD138) on the cell …; experiment: FACS on KMS-11 cells, four parameter fit
Protocol: as §1

[7] = target: T4, Human CD138 His; experiment: SPR, summary table
Protocol: (§3) Murine IgGs were purified from the hybridoma supernatants and the IgGs were subject to SPR (surface plasmon resonance) for kinetic binding measurements. Human or mouse CD138 His was immobilized on a GLM chip at […] on a BioRad Proteon. […] KDs were measured using bivalent analyte fit.

[8] = target: T4, Human CD138 His; experiment: SPR (BioRad Proteon), CD138 His immobilized, bivalent analyte fit
Protocol: as §3

[9] = target: T5, Mouse CD138 His; experiment: SPR, mouse CD138 His immobilized
Protocol: as §3

[10] = target: T6, hCD138 (ELISA of Table 29); experiment: hCD138 ELISA

| Binder | EC50 [1] [nM] | FACS binding (KMS11) [2] | EC50 [3] [nM] | EC50 [4] [nM] | ELISA CD138 Fc binding [5] | EC50 [6] [nM] | Kd [7] [nM] | Kd [8] [nM] | koff [8] [s⁻¹] | kon [8] [M⁻¹ s⁻¹] | binding result [9] | EC50 [10] [nM] |
| --- | --- | --- | --- | --- | --- | --- | --- | --- | --- | --- | --- | --- |
| B1 | 2.73 | 0.97 | 1.31 | 0.762 | 0.762 | 0.97 | – | – | – | – | – | – |
| B2 | 1.93 | 0.94 | 0.413 | 0.225 | 0.225 | 0.94 | – | – | – | – | – | – |
| B3 | 1.88 | 1.09 | 1.54 | 0.879 | 0.879 | 1.09 | – | – | – | – | – | – |
| B4 | 2.13 | 1.36 | 1.28 | 0.969 | 0.969 | 1.36 | – | – | – | – | – | – |
| B5 | – | – | – | – | – | – | 92 | 91.6 | 0.0117 | 128000 | no binding (tested: 167 nM) | – |
| B6 | – | – | – | – | – | – | – | – | – | – | – | 0.55 |
